Patent publication US20260265379A1
Each block holds one binder with its values, some of them ahead of it.

Target: BTN3A expressed at the cell surface (human), O00481
Assay: cell-based or functional assay

BTN3A expressed at the cell surface (human), O00481, sequence (O00481 30-513): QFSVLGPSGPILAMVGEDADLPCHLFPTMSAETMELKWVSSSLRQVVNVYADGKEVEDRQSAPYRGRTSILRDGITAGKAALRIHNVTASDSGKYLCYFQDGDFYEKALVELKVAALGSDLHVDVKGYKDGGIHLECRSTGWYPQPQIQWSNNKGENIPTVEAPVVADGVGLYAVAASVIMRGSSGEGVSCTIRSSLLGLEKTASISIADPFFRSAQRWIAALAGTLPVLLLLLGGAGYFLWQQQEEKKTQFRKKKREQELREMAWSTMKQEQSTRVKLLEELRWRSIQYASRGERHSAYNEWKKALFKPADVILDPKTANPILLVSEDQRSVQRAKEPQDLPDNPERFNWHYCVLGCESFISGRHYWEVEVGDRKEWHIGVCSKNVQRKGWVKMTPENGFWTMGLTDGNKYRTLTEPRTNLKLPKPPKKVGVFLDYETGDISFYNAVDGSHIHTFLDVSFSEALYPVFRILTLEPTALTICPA

B2: bsAb059 (bispecific antibody)
heavy: QVQLVQSGVEVKKPGASVKVSCKASGYTFTNYYMYWVRQAPGQGLEWMGGINPSNGGTNFNEKFKNRVTLTTDSSTTTAYMELKSLQFDDTAVYYCARRDYRFDMGFDYWGQGTTVTVSSASTKGPSVFPLAPSSKSTSGGTAALGCLVKDYFPEPVTVSWNSGALTSGVHTFPAVLQSSGLYSLSSVVTVPSSSLGTQTYICNVNHKPSNTKVDKRVEPKSCDKTHTCPPCPAPEFEGGPSVFLFPPKPKDTLMISRTPEVTCVVVDVSHEDPEVKFNWYVDGVEVHNAKTKPREEQYNSTYRVVSVLTVLHQDWLNGKEYKCKVSNKALPASIEKTISKAKGQPREPQVYTLPPSREEMTKNQVSLTCLVKGFYPSDIAVEWESNGQPENNYKTTPPVLDSDGSFFLYSKLTVDKSRWQQGNVFSCSVMHEALHNHYTQKSLSLSPG
light: QVQLVQSGAEVKKPGASVKLSCKASGYIFTRYYMYWVKQRPGQGLEWIGEINPNNGGTKFNEKFKNRATLTVDKSISTAYMELSRLRSDDTAVYYCSREDDYDGTPFAMDYWGQGTLVTVSSGGGGSGGGGSGGGGSGGGGSDIQMTQSPSSLSASVGDRVTITCHASQNINVWLSWYQQKPGKAPKLLIYKASNLHTGVPSRFTGSGSGTDFTFTISSLQPEDIATYYCQQGQTYPYTFGQGTKLEIKGGGGSGGGGSGGGGSGGGGSEIVLTQSPATLSLSPGERATLSCRASKGVSTSGYSYLHWYQQKPGQAPRLLIYLASYLESGVPARFSGSGSGTDFTLTISSLEPEDFAVYYCQHSRDLPLTFGGGTKVEIKRTVAAPSVFIFPPSDEQLKSGTASVVCLLNNFYPREAKVQWKVDNALQSGNSQESVTEQDSKDSTYSLSSTLTLSKADYEKHKVYACEVTHQGLSSPVTKSFNRGEC
Jurkat-Vy9Vo2 TCR MOP activation at 0.5 nM (fold-change to medium): 1.1 | Jurkat-Vy9Vo2 TCR MOP activation at 5 nM (fold-change to medium): 1.1

B3: bsAb060 (bispecific antibody)
heavy: B2 heavy
light: DIQMTQSPSSLSASVGDRVTITCHASQNINVWLSWYQQKPGKAPKLLIYKASNLHTGVPSRFTGSGSGTDFTFTISSLQPEDIATYYCQQGQTYPYTFGQGTKLEIKGGGGSGGGGSGGGGSGGGGSQVQLVQSGAEVKKPGASVKLSCKASGYIFTRYYMYWVKQRPGQGLEWIGEINPNNGGTKFNEKFKNRATLTVDKSISTAYMELSRLRSDDTAVYYCSREDDYDGTPFAMDYWGQGTLVTVSSGGGGSGGGGSGGGGSGGGGSEIVLTQSPATLSLSPGERATLSCRASKGVSTSGYSYLHWYQQKPGQAPRLLIYLASYLESGVPARFSGSGSGTDFTLTISSLEPEDFAVYYCQHSRDLPLTFGGGTKVEIKRTVAAPSVFIFPPSDEQLKSGTASVVCLLNNFYPREAKVQWKVDNALQSGNSQESVTEQDSKDSTYSLSSTLTLSKADYEKHKVYACEVTHQGLSSPVTKSFNRGEC
Jurkat-Vy9Vo2 TCR MOP activation at 0.5 nM (fold-change to medium): 1.1 | Jurkat-Vy9Vo2 TCR MOP activation at 5 nM (fold-change to medium): 1.1

B5: bsAb042 (bispecific antibody, not shown: small tags and cut ends; a dimerising Fc or GST)
heavy 1: QVQLVQSGVEVKKPGASVKVSCKASGYTFTNYYMYWVRQAPGQGLEWMGGINPSNGGTNFNEKFKNRVTLTTDSSTTTAYMELKSLQFDDTAVYYCARRDYRFDMGFDYWGQGTTVTVSS
heavy 2: QVQLVQSGAEVKKPGASVKLSCKASGYIFTRYYMYWVKQRPGQGLEWIGEINPNNGGTKFNEKFKNRATLTVDKSISTAYMELSRLRSDDTAVYYCSREDDYDGTPFAMDYWGQGTLVTVSSGGGGSGGGGSGGGGSGGGGSDIQMTQSPSSLSASVGDRVTITCHASQNINVWLSWYQQKPGKAPKLLIYKASNLHTGVPSRFTGSGSGTDFTFTISSLQPEDIATYYCQQGQTYPYTFGQGTKLEIKGGGGSGGGGSGGGGSGGGGS
light: EIVLTQSPATLSLSPGERATLSCRASKGVSTSGYSYLHWYQQKPGQAPRLLIYLASYLESGVPARFSGSGSGTDFTLTISSLEPEDFAVYYCQHSRDLPLTFGGGTKVEIKRTVAAPSVFIFPPSDEQLKSGTASVVCLLNNFYPREAKVQWKVDNALQSGNSQESVTEQDSKDSTYSLSSTLTLSKADYEKHKVYACEVTHQGLSSPVTKSFNRGECGGGGSGGGGSGGGGSGGGGSDIQMTQSPSSLSASVGDRVTITCHASQNINVWLSWYQQKPGKAPKLLIYKASNLHTGVPSRFTGSGSGTDFTFTISSLQPEDIATYYCQQGQTYPYTFGQGTKLEIKGGGGSGGGGSGGGGSGGGGSQVQLVQSGAEVKKPGASVKLSCKASGYIFTRYYMYWVKQRPGQGLEWIGEINPNNGGTKFNEKFKNRATLTVDKSISTAYMELSRLRSDDTAVYYCSREDDYDGTPFAMDYWGQGTLVTVSS
Jurkat-Vy9Vo2 TCR MOP activation at 0.5 nM (fold-change to medium): 1.1 | Jurkat-Vy9Vo2 TCR MOP activation at 5 nM (fold-change to medium): 1

B6: bsAb053 (bispecific antibody, not shown: small tags and cut ends)
heavy (part 1 of 2): B5 heavy 1
heavy (part 2 of 2): GGGGSGGGGSGGGGSGGGGSQVQLVQSGAEVKKPGASVKLSCKASGYIFTRYYMYWVKQRPGQGLEWIGEINPNNGGTKFNEKFKNRATLTVDKSISTAYMELSRLRSDDTAVYYCSREDDYDGTPFAMDYWGQGTLVTVSSGGGGSGGGGSGGGGSGGGGSDIQMTQSPSSLSASVGDRVTITCHASQNINVWLSWYQQKPGKAPKLLIYKASNLHTGVPSRFTGSGSGTDFTFTISSLQPEDIATYYCQQGQTYPYTFGQGTKLEIK
heavy: B5 heavy 1
light: EIVLTQSPATLSLSPGERATLSCRASKGVSTSGYSYLHWYQQKPGQAPRLLIYLASYLESGVPARFSGSGSGTDFTLTISSLEPEDFAVYYCQHSRDLPLTFGGGTKVEIKRTVAAPSVFIFPPSDEQLKSGTASVVCLLNNFYPREAKVQWKVDNALQSGNSQESVTEQDSKDSTYSLSSTLTLSKADYEKHKVYACEVTHQGLSSPVTKSFNRGEC
Jurkat-Vy9Vo2 TCR MOP activation at 0.5 nM (fold-change to medium): 1.2 | Jurkat-Vy9Vo2 TCR MOP activation at 5 nM (fold-change to medium): 1.1

Second part, the binder after the results:

Jurkat-Vy9Vo2 TCR MOP activation at 0.5 nM (fold-change to medium): 13.6 | Jurkat-Vy9Vo2 TCR MOP activation at 5 nM (fold-change to medium): 10.7
B1: bsAb003 (bispecific antibody, human IgG1, kappa)
heavy: QVQLVQSGAEVKKPGASVKLSCKASGYIFTRYYMYWVKQRPGQGLEWIGEINPNNGGTKFNEKFKNRATLTVDKSISTAYMELSRLRSDDTAVYYCSREDDYDGTPFAMDYWGQGTLVTVSSASTKGPSVFPLAPSSKSTSGGTAALGCLVKDYFPEPVTVSWNSGALTSGVHTFPAVLQSSGLYSLSSVVTVPSSSLGTQTYICNVNHKPSNTKVDKRVEPKSCDKTHTCPPCPAPEFEGGPSVFLFPPKPKDTLMISRTPEVTCVVVDVSHEDPEVKFNWYVDGVEVHNAKTKPREEQYNSTYRVVSVLTVLHQDWLNGKEYKCKVSNKALPASIEKTISKAKGQPREPQVYTLPPSREEMTKNQVSLTCLVKGFYPSDIAVEWESNGQPENNYKTTPPVLDSDGSFFLYSKLTVDKSRWQQGNVFSCSVMHEALHNHYTQKSLSLSPGGGGGSGGGGSGGGGSGGGGSEVQLVESGGGLVQPGGSLRLSCAASGFTFSRYWMSWVRQAPGKGLEWVANIKQDGSEKYYVDSVKGRFTISRDNAKNSLYLQMNSLRAEDTAVYYCAREGGWFGELAFDYWGQGTLVTVSSGGGGSGGGGSGGGGSGGGGSEIVLTQSPGTLSLSPGERATLSCRASQRVSSSYLAWYQQKPGQAPRLLIYDASSRATGIPDRFSGSGSGTDFTLTISRLEPEDFAVYYCQQYGSLPWTFGQGTKVEIK
light: not shown

Jurkat-Vy9Vo2 TCR MOP activation at 0.5 nM (fold-change to medium): 0.9 | Jurkat-Vy9Vo2 TCR MOP activation at 5 nM (fold-change to medium): 1
B4: bsAb039 (bispecific antibody, not shown: small tags and cut ends; a dimerising Fc or GST)
heavy (part 1 of 2): B5 heavy 1
heavy (part 2 of 2): GGGGSGGGGSGGGGSGGGGSDIQMTQSPSSLSASVGDRVTITCHASQNINVWLSWYQQKPGKAPKLLIYKASNLHTGVPSRFTGSGSGTDFTFTISSLQPEDIATYYCQQGQTYPYTFGQGTKLEIKGGGGSGGGGSGGGGSGGGGSQVQLVQSGAEVKKPGASVKLSCKASGYIFTRYYMYWVKQRPGQGLEWIGEINPNNGGTKFNEKFKNRATLTVDKSISTAYMELSRLRSDDTAVYYCSREDDYDGTPFAMDYWGQGTLVTVSS
heavy: B4 heavy (part 2 of 2)
light: B6 light

Jurkat-Vy9Vo2 TCR MOP activation at 0.5 nM (fold-change to medium): 6.5 | Jurkat-Vy9Vo2 TCR MOP activation at 5 nM (fold-change to medium): 4.5
B7: bsAb001 (bispecific antibody, human IgG1, kappa)
heavy: QVQLVQSGAEVKKPGASVKLSCKASGYIFTRYYMYWVKQRPGQGLEWIGEINPNNGGTKFNEKFKNRATLTVDKSISTAYMELSRLRSDDTAVYYCSREDDYDGTPFAMDYWGQGTLVTVSSASTKGPSVFPLAPSSKSTSGGTAALGCLVKDYFPEPVTVSWNSGALTSGVHTFPAVLQSSGLYSLSSVVTVPSSSLGTQTYICNVNHKPSNTKVDKRVEPKSCDKTHTCPPCPAPEFEGGPSVFLFPPKPKDTLMISRTPEVTCVVVDVSHEDPEVKFNWYVDGVEVHNAKTKPREEQYNSTYRVVSVLTVLHQDWLNGKEYKCKVSNKALPASIEKTISKAKGQPREPQVYTLPPSREEMTKNQVSLTCLVKGFYPSDIAVEWESNGQPENNYKTTPPVLDSDGSFFLYSKLTVDKSRWQQGNVFSCSVMHEALHNHYTQKSLSLSPGGGGGSGGGGSGGGGSGGGGSQVQLVQSGVEVKKPGASVKVSCKASGYTFTNYYMYWVRQAPGQGLEWMGGINPSNGGTNFNEKFKNRVTLTTDSSTTTAYMELKSLQFDDTAVYYCARRDYRFDMGFDYWGQGTTVTVSSGGGGSGGGGSGGGGSGGGGSEIVLTQSPATLSLSPGERATLSCRASKGVSTSGYSYLHWYQQKPGQAPRLLIYLASYLESGVPARFSGSGSGTDFTLTISSLEPEDFAVYYCQHSRDLPLTFGGGTKVEIK
light: not shown

Jurkat-Vy9Vo2 TCR MOP activation at 0.5 nM (fold-change to medium): 12.2 | Jurkat-Vy9Vo2 TCR MOP activation at 5 nM (fold-change to medium): 9.8
B8: bsAb011 (bispecific antibody)
heavy: QVQLVQSGAEVKKPGASVKLSCKASGYIFTRYYMYWVKQRPGQGLEWIGEINPNNGGTKFNEKFKNRATLTVDKSISTAYMELSRLRSDDTAVYYCSREDDYDGTPFAMDYWGQGTLVTVSSASTKGPSVFPLAPSSKSTSGGTAALGCLVKDYFPEPVTVSWNSGALTSGVHTFPAVLQSSGLYSLSSVVTVPSSSLGTQTYICNVNHKPSNTKVDKRVEPKSCDKTHTCPPCPAPEFEGGPSVFLFPPKPKDTLMISRTPEVTCVVVDVSHEDPEVKFNWYVDGVEVHNAKTKPREEQYNSTYRVVSVLTVLHQDWLNGKEYKCKVSNKALPASIEKTISKAKGQPREPQVYTLPPSREEMTKNQVSLTCLVKGFYPSDIAVEWESNGQPENNYKTTPPVLDSDGSFFLYSKLTVDKSRWQQGNVFSCSVMHEALHNHYTQKSLSLSPG
light: not shown
